This note sets out measurements from patent publication US20250011804A1 (PIONEER HI BRED INTERNATIONAL, published 2025).

Sequences and labels used below:
B7: Zmm28 transcription factor (other)
chain: MGRGPVQLRRIENKINRQVTFSKRRNGLLKKAHEISVLCDAEVALIVFSTKGKLYEYSSHSSMEGILERYQRYSFEERAVLNPSIEDQANWGDEYVRLKSKLDALQKSQRQLLGEQLSSLTIKELQQLEQQLDSSLKHIRSRKNQLMFDSISALQKKEKALTDQNGVLQKFMEAEKEKNKALMNAQLREQQNGASTSSPSLSPPIVPDSMPTLNIGPCQHRGAAESESEPSPAPAQANRGNLPPWMLRTVK
notes: MADS-box transcription factor; also called Zm00001d022088

Data set [1] addresses B7. Put plainly: BiFC, maize protoplasts, flow cytometry. The protocol: (§1) Potential interaction partners of ZMM28 were further tested in vivo with a bimolecular fluorescence complementation (BiFC) assay. Following transfection of maize protoplasts, fluorescence was measured indicating interaction between nGFP-Prey and cGFP-ZMM28 (Bait). As BiFC is prone to false-positive self-assembly independent of protein-protein interaction, flow cytometry was used to quantify the BiFC signal and reduce the occurrence of false positives. All signal comparisons were made to a negative control providing a baseline for self-assembly. The control was created by deleting 47 amino acids from the leucine zipper-like K-domain of ZMMADSL6, a protein interaction partner of ZMM28 identified from bioinformatics prediction and Y2H experiment. […] Of the 12 tested protein interactions, eight were confirmed via the BiFC assay with almost half the interactions confirmed positive in both BiFC and Y2H assays (Table 2a). Table 2: ZMM28 protein-protein interactions, transcription, direct targets.
(§2) Maize seedlings were germinated and grown in Fafard Super Fine Germination Mix for 6 days in a lighted growth chamber (30° C., 60% RH, 24 h light) and were transferred to a dark growth chamber (30° C., 60% RH, 0 h light) and grown for an additional 4 days to V1. Seedlings were sub-irrigated with deionized water. Maize protoplasts were isolated from these seedlings and were transiently transformed by PEG-mediated transfection as described by Yoo et al.63 with the addition of 0.6 M mannitol in the enzyme, WI, W5 and MMG solutions. Protoplasts were transfected with 10 pmol bait+10 pmol prey plasmid DNA per 3×10^4 cells. Protoplasts were incubated on a 12-well (1 mL WI) plate for 20 hours at RT before samples were analyzed.
(§3) BiFC signals were detected by flow cytometry performed using an Attune™ Flow Cytometer (Thermo Fisher Scientific, Waltham, MA, USA) with a Blue/Violet configuration (488 nm, 20 mW laser and a 405 nm, 50 mW laser).

Data set [2] concerns the molecule itself. Put plainly: BiFC, maize protoplasts, flow cytometry. The protocol:
as §1, §2, §3
Background: Flow cytometry measures light scatter and fluorescence of single cells or particles in a stream.

B1: ZmZAG2 (other)
chain: MGRGRIEIKRIENNTSRQVTFCKRRNGLLKKAYELSVLCDAEVALIVFSSRGRLYEYANNSVKATIERYKKAHTVGSSSGPPLLEHNAQQFYQQESAKLRNQIQMLQNTNRHLVGDSVGNLSLKELKQLESRLEKGISKIRARKSELLAAEISYMAKRETELQNDHMTLRTKIEEGEQQLQQVTVARSVAAAAAAATNLELNPFLEMDTKCFFTGGPFATLDMKCFLPGSLQQMLEAQQRQMLATELNLGYQLAPPGSDAADNNPHHQF
notes: Tested as prey fusion (GAL4 AD in Y2H/HY1H, nGFP with 30x glutamine linker in BiFC); also called zag2 - Zea AGAMOUS homolog2; GRMZM2G160687
For the molecule B1, in data set [1], the “BiFC positive cell count” value is 125 cells out of 10,000.

B2: ZmSFT-LIKE (other)
chain: MGSVLLPTLRLKSEVDAAIRDTLDKVLVLRFGRATDATCLHLDDILDKSSWDISKFAMVALVDMDSEEIQVYIDYFDITLVPATIFFFNAHHMKMDSGTPDHTKWIGSFSSKQDFIDVVEAIFRGAMKGKLIVSCPLPPERIPRFQLLFKDV
notes: Tested as prey fusions; also called ZmSFT-like - Zea mays mRNA splicing factor thioredoxin-like U5 snRNP; GRMZM2G086779
For B2, in data set [1], the “BiFC positive cell count” value is 2330 cells out of 10,000.

B3: ZmMADS24 (other)
chain: MGRGKVVLQRIENKISRQVTFAKRRNGLLKKAYELSILCDAEVALVLFSHAGRLYQFSSSSNLLKTLERYQRYIYASADAAVPSSDQMQNNYQEYVKLKARVEVLQHSQRNLLGEDLALLSPSELDQLENQVDKTLKQIRSRKTQVLLDELCDLKRKEQMLQDANRVLKRKLGEFEAEAASPPQLAWQGEGGMLSHDPPQPEHFFQALESNPCLQPTYHTMDMNQQPVPAPGGCYPAWMS
notes: Tested as prey fusions; also called zmm24 - Zea mays MADS24; GRMZM2G087095
As to B3, in data set [1], the “BiFC positive cell count” value is 2100 cells out of 10,000.

B4: ZmSF2 (other)
chain: MTRRNGCTIYVGNLPGDIREREVDDLFYKGRQCGLRMYGRIVEIDLKIPPRPPGFAFVEFEDARDAEDAIYGRDGYNFDGHRLRVELAHGGRGTSSFDRSSSYSSAGQRGASKRSDYRVMVTGLPSSASWQDLKDHMRRAGDVCFTDVYREAGATIGIADYTNYEDMKHAIRKLDDSEFRNAFSRTYVRVREYDARRSRSRSRGRNRSKSRSRSHSHSYSRSRSCSYSKSRSPRSRSASESKSPVKARSPSRSPPVSPRRDKSASRSPARSKSLPRSCSPAKSE
notes: Tested as prey fusions; also called Zea mays splicing factor 2; GRMZM2G170365
For the molecule B4, the “BiFC positive cell count” value in data set [1] was 715 cells out of 10,000.

B5: ZmMADS7-LIKE (other)
chain: MGRGRVELKRIENKINRQVTFAKRRNGLLKKAYELSVLCDAEVALIVFSNRGKLYEFCSGPSITRTLERYEKNSYAGPDTAVQNKENELVQNSRNEYLKLKAKVDNLQRTQRNLLGEDLGSLGVKELDQLEKQIDSSLSHIRSTRTQHMLDQLTDLQRREQMMCEANKCLRRKLEETSNQVHGQVWEHGANLLLGYERHSSPQQAPSHVGNGLFFHPLEAAAEPTLQIGFAPEHMNNFMPAWLP
notes: Tested as prey fusions; also called zmm7 - Zea mays MADS7; GRMZM2G097059
B5: the “BiFC positive cell count” value in data set [1] was 438 cells out of 10,000.

B6: ZmMADSL6 (other)
chain: MGRGRVELKRIENKINRQVTFAKRRNGLLKKAYELSVLCDAEVALIIFSNRGKLYEFSSTQSMPKTLEKYQKCSFAGPETALQNRENEQLKSSRNEYLKLKARVDNLQRTQRNLLGEDLESLGIKELEHLEKQLDSSLKHIRSTRTQHMVDQLTELQKKEQMFCEANKCLRRRLEESNQVIWQHAWEQSERHSEVQPQQLNGNNFFHPLDGAGEPTLQIGYPSEALTSSCMTTFLPPWLP
notes: positive control of the BiFC assay (full length); Tested as prey fusions; also called WT ZMMADSL6; full length ZmMADSL6
As for B6, in data set [1], the “BiFC positive cell count” value was 4060 cells out of 10,000. On to B7, for which the “BiFC positive cell count” value in data set [2] is 1010 cells out of 10,000.
